Measurements published in patent publication US20030148958A1 (PROCTER AND GAMBLE, published 2003).
Ends that are not written are not given here.

T1: corticotropin releasing factor 2 receptor
T1 sequence (Q13324 whole entry, species assumed, looked up): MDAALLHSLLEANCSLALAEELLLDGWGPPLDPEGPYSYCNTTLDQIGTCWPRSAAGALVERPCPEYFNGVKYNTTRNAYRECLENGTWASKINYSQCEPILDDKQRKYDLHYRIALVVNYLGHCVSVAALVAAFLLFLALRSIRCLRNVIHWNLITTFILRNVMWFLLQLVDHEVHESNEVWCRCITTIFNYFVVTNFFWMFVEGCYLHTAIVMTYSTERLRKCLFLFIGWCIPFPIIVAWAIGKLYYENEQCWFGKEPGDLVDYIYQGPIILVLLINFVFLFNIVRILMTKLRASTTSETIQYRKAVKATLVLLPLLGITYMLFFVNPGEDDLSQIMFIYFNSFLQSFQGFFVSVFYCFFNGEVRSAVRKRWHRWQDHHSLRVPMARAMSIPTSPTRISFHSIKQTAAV


Molecular target: T1, corticotropin releasing factor 2 …
Assay: cell-based or functional assay
Wherever CRF1R Emax is given: reference of the scale not given here.
Wherever CRF2R Emax is given: reference of the scale not given here.

Row | Binder | CRF2R EC50 | CRF2R Emax
1 | IVLSLDVPIGLLQILLEIEKQEKEKQQAANNRLLLDTI-NH2 [SEQ ID NO 158] | 6.37 nM | 89%
2 | IVLSLDVPIGLLQILLEQAARAAREQATTNARILARV-NH2 [SEQ ID NO 135] | > 100 nM | 76%
3 | IVLSLDVPIGLLQILLEMTKADQLAQQAHSNRKLLDIA-NH2 [SEQ ID NO 155] | 20.6 nM | 94%
4 | IVLSLDVPIGLLQILLEQRARAAREQATTNARILARV-NH2 [SEQ ID NO 137] | 36.9 nM | 100%
5 | IVLSLDVPIGLLQILIEIEKQEKEKQQAANNARILARV-NH2 [SEQ ID NO 166] | 3.7 nM | 99%
6 | IVLSLDVPIGLLQILLEQRAAREQATTNARILARV-NH2 [SEQ ID NO 136] | 23.4 nM | 68%
7 | SQEPPISLDLTFHLLREVLEQARARAAREQATTNARILARV-NH2 [SEQ ID NO 157] | 42 nM | 60.6%
8 | IVLSLDVPIGLLQILLEQARARAAREQATSNRKLMEII-NH2 [SEQ ID NO 163] | 4.49 nM | 96%
9 | ZGIVLSLDVPIGLLRKMIEIEKQEKEKQQAANNRLLLDTI (C-terminal amide) [SEQ ID NO 153] | 9.28 nM | 97%
10 | SEEPPISLDLTFHLLREVLEMARAEQLAQQAHTNARILARV-NH2 [SEQ ID NO 161] | > 100 nM | 88%
11 | IVLSLDVPIGLLQILLEQAAAAREQATTNARILARV-NH2 [SEQ ID NO 134] | > 100 nM | 19%
12 | IVLSLDVPIGLLQILLEQRRAAREQATTNARILARV-NH2 [SEQ ID NO 133] | 12.2 nM | 88%
13 | ZGPPISIDLSLELLRKMIEQARARAAREQATTNARILARV (C-terminal amide) [SEQ ID NO 156] | 9.29 nM | 79%
14 | IVLSLDVPIGLLQILLEQAAAREQATTNARILARV-NH2 [SEQ ID NO 139] | 42.6 nM | 60%
15 | IVLSLDVPIGLLQILLEQTKADQLAQQAHSNRKLLDIA-NH2 [SEQ ID NO 159] | 90.8 nM | 62%
16 | IVLSLDVPIGLLQILIEIEKQEKEKQQAANNRLLLDTI-NH2 [SEQ ID NO 154] | 10.3 nM | 100%
17 | SQEIVLSLDVPIGLLREVLEMTKADQLAQQAHSNRKLLDIA-NH2 [SEQ ID NO 152] | > 100 nM | 19%
18 | IVLSLDVPIGLLQILLEQARAAAREQATTNARILARV-NH2 [SEQ ID NO 141] | > 100 nM | 29%
19 | ZGPPISIDLSLELLRKMIEIEKQEKEKQQATTNARILARV (C-terminal amide) [SEQ ID NO 142] | 9.08 nM | 77%

Row | Binder | CRF2R EC50 | CRF2R Emax
20 | ZGPPISIDLPIYLLRKMIEIEKQEKEKQQATTNARILARV (C-terminal amide) [SEQ ID NO 149] | 26.2 nM | 95.5%
21 | ZGPPISIDLPLQLLRKMIEIEKQEKEKQQATTNARILARV (C-terminal amide) [SEQ ID NO 144] | 9.16 nM | 85.5%
22 | ZGPPISIDLPTYLLRKMIEIEKQEKEKQQATTNARILARV (C-terminal amide) [SEQ ID NO 151] | 36.8 nM | 96%
23 | ZGPPISIDLPLELLRKMIEIEKQEKEKQQATTNARILARV (C-terminal amide) [SEQ ID NO 143] | 11.1 nM | 85.5%
24 | ZGPPISIDLPLHLLRKMIEIEKQEKEKQQATTNARILARV (C-terminal amide) [SEQ ID NO 145] | 7.8 nM | 69%
25 | ZGPPISIDLPFYLLRKMIEIEKQEKEKQQATTNARILARV (C-terminal amide) [SEQ ID NO 147] | 6.75 nM | 94%
26 | ZGPPISIDLPFHLLRKMIEIEKQEKEKQQATTNARILARV (C-terminal amide) [SEQ ID NO 146] | 8.2 nM | 84.5%
27 | ZGPPISIDLPIQLLRKMIEIEKQEKEKQQATTNARILARV (C-terminal amide) [SEQ ID NO 150] | 34.6 nM | 70.5%
28 | ZGPPISIDLPFQLLRKMIEIEKQEKEKQQATTNARILARV (C-terminal amide) [SEQ ID NO 148] | 9.45 nM | 51.5%
29 | IVLSLDVPIGLLQILLEQAAREQATTNARILARV-NH2 [SEQ ID NO 138] | 59 nM | 46%
30 | IVLSLDVPIGLLQTLLELARTQSQRERAEQNRIIFDSV-NH2 [SEQ ID NO 160] | 9.15 nM | 87%
31 | IVLSLDVPIGLLQILLEMARAEQLAQQAHSNRKLMEII-NH2 [SEQ ID NO 164] | 2.24 nM | 92%
32 | IVLSLDVPIGLLQEVLEMARAEQLAQQAHSNRKLMEII-NH2 [SEQ ID NO 165] | > 100 nM | 75%
33 | SEEPPISLDVPIGLLQEVLEMARAEQLAQQAHSNRKLMEII-NH2 [SEQ ID NO 162] | > 100 nM | 7%
34 | ZGPPISIDLPFQLLRKMIEIEKQEKEKQQATNNRLLLDTI (C-terminal amide) [SEQ ID NO 14] | 6.33 nM | 90%
35 | ZGPPISIDLPFQLLRKMIEIEKQEKEKQQATTNRLLLDTV (C-terminal amide) [SEQ ID NO 16] | 7.88 nM | 86%
36 | ZGPPISIDLPFQLLRKMIEIEKQEKEKQQAAANRLLLDTV (C-terminal amide) [SEQ ID NO 15] | 6.56 nM | 97%
37 | IVLSLDVPIGLLQILLEQEKQEKEKQQATTNARILARV-NH2 [SEQ ID NO 167] | 13 nM | 100%

Molecular target: corticotropin releasing factor 1 receptor
Assay: cell-based or functional assay

Row | Binder | CRF1R EC50 | CRF1R Emax
38 | IVLSLDVPIGLLQILLEIEKQEKEKQQAANNRLLLDTI-NH2 [SEQ ID NO 158] | > 100 nM | 15%
39 | IVLSLDVPIGLLQILLEQAARAAREQATTNARILARV-NH2 [SEQ ID NO 135] | > 100 nM | 6%
40 | IVLSLDVPIGLLQILLEMTKADQLAQQAHSNRKLLDIA-NH2 [SEQ ID NO 155] | 40.6 nM | 16%
41 | IVLSLDVPIGLLQILLEQRARAAREQATTNARILARV-NH2 [SEQ ID NO 137] | > 100 nM | 4%
42 | IVLSLDVPIGLLQILIEIEKQEKEKQQAANNARILARV-NH2 [SEQ ID NO 166] | 438 nM | 95%
43 | IVLSLDVPIGLLQILLEQRAAREQATTNARILARV-NH2 [SEQ ID NO 136] | > 100 nM | 8%
44 | SQEPPISLDLTFHLLREVLEQARARAAREQATTNARILARV-NH2 [SEQ ID NO 157] | 100 nM | 91%
45 | IVLSLDVPIGLLQILLEQARARAAREQATSNRKLMEII-NH2 [SEQ ID NO 163] | > 100 nM | 13%
46 | ZGIVLSLDVPIGLLRKMIEIEKQEKEKQQAANNRLLLDTI (C-terminal amide) [SEQ ID NO 153] | > 100 nM | 7%
47 | SEEPPISLDLTFHLLREVLEMARAEQLAQQAHTNARILARV-NH2 [SEQ ID NO 161] | > 100 nM | 77%
48 | IVLSLDVPIGLLQILLEQAAAAREQATTNARILARV-NH2 [SEQ ID NO 134] | > 100 nM | 7%
49 | IVLSLDVPIGLLQILLEQRRAAREQATTNARILARV-NH2 [SEQ ID NO 133] | > 100 nM | 4%
50 | ZGPPISIDLSLELLRKMIEQARARAAREQATTNARILARV (C-terminal amide) [SEQ ID NO 156] | > 100 nM | 6%
51 | IVLSLDVPIGLLQILLEQAAAREQATTNARILARV-NH2 [SEQ ID NO 139] | > 100 nM | 4%
52 | IVLSLDVPIGLLQILLEQTKADQLAQQAHSNRKLLDIA-NH2 [SEQ ID NO 159] | > 100 nM | 9%
53 | IVLSLDVPIGLLQILIEIEKQEKEKQQAANNRLLLDTI-NH2 [SEQ ID NO 154] | > 100 nM | 7%
54 | SQEIVLSLDVPIGLLREVLEMTKADQLAQQAHSNRKLLDIA-NH2 [SEQ ID NO 152] | > 100 nM | 4%
55 | IVLSLDVPIGLLQILLEQARAAAREQATTNARILARV-NH2 [SEQ ID NO 141] | > 100 nM | 7%
56 | ZGPPISIDLSLELLRKMIEIEKQEKEKQQATTNARILARV (C-terminal amide) [SEQ ID NO 142] | 43.5 nM | 85.3%

Row | Binder | CRF1R EC50 | CRF1R Emax
57 | ZGPPISIDLPIYLLRKMIEIEKQEKEKQQATTNARILARV (C-terminal amide) [SEQ ID NO 149] | 1000 nM | 40.7%
58 | ZGPPISIDLPLQLLRKMIEIEKQEKEKQQATTNARILARV (C-terminal amide) [SEQ ID NO 144] | 567 nM | 100%
59 | ZGPPISIDLPTYLLRKMIEIEKQEKEKQQATTNARILARV (C-terminal amide) [SEQ ID NO 151] | 1000 nM | 19.9%
60 | ZGPPISIDLPLELLRKMIEIEKQEKEKQQATTNARILARV (C-terminal amide) [SEQ ID NO 143] | 232 nM | 100%
61 | ZGPPISIDLPLHLLRKMIEIEKQEKEKQQATTNARILARV (C-terminal amide) [SEQ ID NO 145] | 196 nM | 91.3%
62 | ZGPPISIDLPFYLLRKMIEIEKQEKEKQQATTNARILARV (C-terminal amide) [SEQ ID NO 147] | 102 nM | 96%
63 | ZGPPISIDLPFHLLRKMIEIEKQEKEKQQATTNARILARV (C-terminal amide) [SEQ ID NO 146] | 103 nM | 100%
64 | ZGPPISIDLPIQLLRKMIEIEKQEKEKQQATTNARILARV (C-terminal amide) [SEQ ID NO 150] | 1000 nM | 5.7%
65 | ZGPPISIDLPFQLLRKMIEIEKQEKEKQQATTNARILARV (C-terminal amide) [SEQ ID NO 148] | 295 nM | 100%
66 | IVLSLDVPIGLLQILLEQAAREQATTNARILARV-NH2 [SEQ ID NO 138] | > 100 nM | 5%
67 | IVLSLDVPIGLLQTLLELARTQSQRERAEQNRIIFDSV-NH2 [SEQ ID NO 160] | > 100 nM | 10%
68 | IVLSLDVPIGLLQILLEMARAEQLAQQAHSNRKLMEII-NH2 [SEQ ID NO 164] | > 100 nM | 26%
69 | IVLSLDVPIGLLQEVLEMARAEQLAQQAHSNRKLMEII-NH2 [SEQ ID NO 165] | > 100 nM | 19%
70 | SEEPPISLDVPIGLLQEVLEMARAEQLAQQAHSNRKLMEII-NH2 [SEQ ID NO 162] | > 100 nM | 11%
71 | ZGPPISIDLPFQLLRKMIEIEKQEKEKQQATNNRLLLDTI (C-terminal amide) [SEQ ID NO 14] | 109 nM | 92%
72 | ZGPPISIDLPFQLLRKMIEIEKQEKEKQQATTNRLLLDTV (C-terminal amide) [SEQ ID NO 16] | 136 nM | 98%
73 | ZGPPISIDLPFQLLRKMIEIEKQEKEKQQAAANRLLLDTV (C-terminal amide) [SEQ ID NO 15] | 85.3 nM | 86%
74 | IVLSLDVPIGLLQILLEQEKQEKEKQQATTNARILARV-NH2 [SEQ ID NO 167] | 1000 nM | 15%
